Data taken from US20170362621A1, “ENGINEERED MULTIFUNCTIONAL ENZYMES AND METHODS OF USE” (Danisco US Inc., priority 2014, published 2017).

B1: Trichoderma reesei Bgl1 variant Bgl1-var-02, V43F (numbered per mature Bgl1, SEQ ID NO:3) (Trichoderma reesei; V74F) (protein)
chain: VVPPAGTPWGTAYDKAKAALAKLNLQDKVGIVSGVGWNGGPCFGNTSPASKISYPSLCLQDGPLGVRYSTGSTAFTPGVQAASTWDVNLIRERGQFIGEEVKASGIHVILGPVAGPLGKTPQGGRNWEGFGVDPYLTGIAMGQTINGIQSVGVQATAKHYILNEQELNRETISSNPDDRTLHELYTWPFADAVQANVASVMCSYNKVNTTWACEDQYTLQTVLKDQLGFPGYVMTDWNAQHTTVQSANSGLDMSMPGTDFNGNNRLWGPALTNAVNSNQVPTSRVDDMVTRILAAWYLTGQDQAGYPSFNISRNVQGNHKTNVRAIARDGIVLLKNDANILPLKKPASIAVVGSAAIIGNHARNSPSCNDKGCDDGALGMGWGSGAVNYPYFVAPYDAINTRASSQGTQVTLSNTDNTSSGASAARGKDVAIVFITADSGEGYITVEGNAGDRNNLDPWHNGNALVQAVAGANSNVIVVVHSVGAIILEQILALPQVKAVVWAGLPSQESGNALVDVLWGDVSPSGKLVYTIAKSPNDYNTRIVSGGSDSFSEGLFIDYKHFDDANITPRYEFGYGLSYTKFNYSRLSVLSTAKSGPATGAVVPGGPSDLFQNVATVTVDIANSGQVTGAEVAQLYITYPSSAPRTPPKQLRGFAKLNLTPGQSGTATFNIRRRDLSYWDTASQKWVVPSGSFGISVGASSRDIRLTSTLSVA
notes: diluted fermentation product
B2: Trichoderma reesei Bgl1 variant Bgl1-var-03, V43L (numbered per mature Bgl1, SEQ ID NO:3) (Trichoderma reesei; V74L) (protein)
chain: VVPPAGTPWGTAYDKAKAALAKLNLQDKVGIVSGVGWNGGPCLGNTSPASKISYPSLCLQDGPLGVRYSTGSTAFTPGVQAASTWDVNLIRERGQFIGEEVKASGIHVILGPVAGPLGKTPQGGRNWEGFGVDPYLTGIAMGQTINGIQSVGVQATAKHYILNEQELNRETISSNPDDRTLHELYTWPFADAVQANVASVMCSYNKVNTTWACEDQYTLQTVLKDQLGFPGYVMTDWNAQHTTVQSANSGLDMSMPGTDFNGNNRLWGPALTNAVNSNQVPTSRVDDMVTRILAAWYLTGQDQAGYPSFNISRNVQGNHKTNVRAIARDGIVLLKNDANILPLKKPASIAVVGSAAIIGNHARNSPSCNDKGCDDGALGMGWGSGAVNYPYFVAPYDAINTRASSQGTQVTLSNTDNTSSGASAARGKDVAIVFITADSGEGYITVEGNAGDRNNLDPWHNGNALVQAVAGANSNVIVVVHSVGAIILEQILALPQVKAVVWAGLPSQESGNALVDVLWGDVSPSGKLVYTIAKSPNDYNTRIVSGGSDSFSEGLFIDYKHFDDANITPRYEFGYGLSYTKFNYSRLSVLSTAKSGPATGAVVPGGPSDLFQNVATVTVDIANSGQVTGAEVAQLYITYPSSAPRTPPKQLRGFAKLNLTPGQSGTATFNIRRRDLSYWDTASQKWVVPSGSFGISVGASSRDIRLTSTLSVA
notes: diluted fermentation product
B3: Trichoderma reesei Bgl1 variant Bgl1-var-12, V43F/W237A (numbered per mature Bgl1, SEQ ID NO:3) (Trichoderma reesei; V74F/W268A) (protein)
chain: VVPPAGTPWGTAYDKAKAALAKLNLQDKVGIVSGVGWNGGPCFGNTSPASKISYPSLCLQDGPLGVRYSTGSTAFTPGVQAASTWDVNLIRERGQFIGEEVKASGIHVILGPVAGPLGKTPQGGRNWEGFGVDPYLTGIAMGQTINGIQSVGVQATAKHYILNEQELNRETISSNPDDRTLHELYTWPFADAVQANVASVMCSYNKVNTTWACEDQYTLQTVLKDQLGFPGYVMTDANAQHTTVQSANSGLDMSMPGTDFNGNNRLWGPALTNAVNSNQVPTSRVDDMVTRILAAWYLTGQDQAGYPSFNISRNVQGNHKTNVRAIARDGIVLLKNDANILPLKKPASIAVVGSAAIIGNHARNSPSCNDKGCDDGALGMGWGSGAVNYPYFVAPYDAINTRASSQGTQVTLSNTDNTSSGASAARGKDVAIVFITADSGEGYITVEGNAGDRNNLDPWHNGNALVQAVAGANSNVIVVVHSVGAIILEQILALPQVKAVVWAGLPSQESGNALVDVLWGDVSPSGKLVYTIAKSPNDYNTRIVSGGSDSFSEGLFIDYKHFDDANITPRYEFGYGLSYTKFNYSRLSVLSTAKSGPATGAVVPGGPSDLFQNVATVTVDIANSGQVTGAEVAQLYITYPSSAPRTPPKQLRGFAKLNLTPGQSGTATFNIRRRDLSYWDTASQKWVVPSGSFGISVGASSRDIRLTSTLSVA
notes: diluted fermentation product
B4: Trichoderma reesei beta-glucosidase I (Bgl1), wild type, SEQ ID NO:2 (mature SEQ ID NO:3) (Trichoderma reesei) (protein)
chain: VVPPAGTPWGTAYDKAKAALAKLNLQDKVGIVSGVGWNGGPCVGNTSPASKISYPSLCLQDGPLGVRYSTGSTAFTPGVQAASTWDVNLIRERGQFIGEEVKASGIHVILGPVAGPLGKTPQGGRNWEGFGVDPYLTGIAMGQTINGIQSVGVQATAKHYILNEQELNRETISSNPDDRTLHELYTWPFADAVQANVASVMCSYNKVNTTWACEDQYTLQTVLKDQLGFPGYVMTDWNAQHTTVQSANSGLDMSMPGTDFNGNNRLWGPALTNAVNSNQVPTSRVDDMVTRILAAWYLTGQDQAGYPSFNISRNVQGNHKTNVRAIARDGIVLLKNDANILPLKKPASIAVVGSAAIIGNHARNSPSCNDKGCDDGALGMGWGSGAVNYPYFVAPYDAINTRASSQGTQVTLSNTDNTSSGASAARGKDVAIVFITADSGEGYITVEGNAGDRNNLDPWHNGNALVQAVAGANSNVIVVVHSVGAIILEQILALPQVKAVVWAGLPSQESGNALVDVLWGDVSPSGKLVYTIAKSPNDYNTRIVSGGSDSFSEGLFIDYKHFDDANITPRYEFGYGLSYTKFNYSRLSVLSTAKSGPATGAVVPGGPSDLFQNVATVTVDIANSGQVTGAEVAQLYITYPSSAPRTPPKQLRGFAKLNLTPGQSGTATFNIRRRDLSYWDTASQKWVVPSGSFGISVGASSRDIRLTSTLSVA
notes: secreted mature protein

How the values were obtained:
[1] = substrate: O=[N+]([O-])c1ccc(O[C@@H]2OC[C@@H](O)[C@H](O)[C@H]2O)cc1; assay: steady state kinetics, hydrolysis of pNpX; assay type: biochemical, Trichoderma reesei; details: other: pNpX, 37° C.
Source text: (§1) The Bgl1 variants of the table above were produced as follows. The nucleotide sequences encoding these variants were synthesized by an external vendor (BaseClear, Leiden, the Netherlands), and cloned into the pTTTpyr2 vector (see, e.g., published PCT application WO2014029808). Protoplasts of a Trichoderma reesei strain (e.g., the hexa-delete strain of International Publication WO05/001036) with its cbh1, cbh2, eg1, eg2, eg3, and bgl1 deleted) were transformed with plasmid DNA encoding the variants and wild type. The resulting transformants were fermented using standard Trichoderma reesei fermentation procedures.
(§2) Variants 02, 03 and 12 were diluted and incubated with varying concentrations of para-nitrophenol-beta-D-xylopyranoside (or para-nitrophenol-beta-D-xyloside) (pNpX) and para-nitrophenol-beta-D-glucopyranoside (pNpG) in the concentration range of 0.1-9 mM at 37° C. for 30 minutes. Reactions were stopped by addition of 100 μL 0.5 M sodium carbonate and absorbance was measured at 410 nm. Background subtracted OD410 absorbances were plotted against substrate concentration (FIG. 6B-E) and the data was fitted with a function for Michaelis-Menten kinetics using the statistical software package R. Michaelis constants and relative maximum velocities for hydrolysis of pNpX and pNpG were reported in Tables 6 and 7, below, respectively.
It was noted that the data for pNpX hydrolysis by the wild type Bgl1 could not be fitted with the Michaelis-Menten function. In order to calculate a Michalis constant the maximum velocity obtained for Variant 03 was used.

[2] = substrate: O=[N+]([O-])c1ccc(O[C@@H]2O[C@H](CO)[C@@H](O)[C@H](O)[C@H]2O)cc1; assay: steady state kinetics, hydrolysis of pNpG; assay type: biochemical, Trichoderma reesei; details: other: pNpG, 0.1-9 mM, 37° C., 30 minutes
Source text: as §1, §2

| Protein | Km ([1]; 0.1-9 mM, 30 minutes) | Km [2] | Km ([1]; data could not be fitted, calculated with the maximum velocity obtained for Variant 03) |
| --- | --- | --- | --- |
| B1 | 5.7 mM | 4.8 mM | – |
| B2 | 7 mM | 1.17 mM | – |
| B3 | 18.4 mM | 9.1 mM | – |
| B4 | – | 1.3 mM | 45.1 mM |
